Experimental data taken from patent publication US20260191905A1 (MODERNATX, published 2026).
Values belong to the binder of their own block, whether it stands above or below them.

Columns and labels:
[1] = biological target: T1, human GPC3 on HepG2 cells (human, UniProt P51654 25-554); experiment: FACS, phage-displayed clone on HepG2
T1 construct: whole, on cells
Experimental: Binding of phage with surface expressed VHH domains to HepG2 cells was assessed using FACS. […] The cell suspension was distributed throughout at 96-well, U-bottom plate (85 μL/well) and incubated with phage (15 μL) on ice for 60 minutes with shaking.

[2] = biological target: T2, human GPC3 recombinant protein (human, UniProt P51654 25-559); experiment: SPR (Biacore) off-rate screen, periplasmic extract over human GPC3 on CM5; R0 29.7
T2 construct: also called huGPC3; Human GPC3 protein
Experimental: (§1) Human GPC3 protein in acetate buffer, pH 5.0, was immobilized in a sensor chip CM5 (GE Healthcare; Cat. Nr. BR-1005-30; Lot. Nr.10245232) and successful immobilization was confirmed by using a commercially available human GPC3 antibody (R&D cat. nr. MAB2119) and the anti-GPC3-VHH-Fc (both at 10 μg/mL). Periplasmic extracts from the MP were diluted in Biacore Buffer (0.01 M HEPES pH 7.4, 0.15 M NaCl, 3 mM EDTA, 0.05% P20) and injected over 2 minutes at 30 μL/min. 10 μl of 10 mM NaOH/1M NaCl were injected between samples and off-rates were measured over 5 minutes. Off-rate ([…]) were calculated using BIACORE software 1:1 interaction Langmuir binding model.

[3] = biological target: T1, human GPC3 on HepG2 cells; experiment: FACS, phage-displayed clone on HepG2, well B4; same clone on A-431 (no GPC3): 1.12%
[4] = biological target: T1, human GPC3 on HepG2 cells; experiment: FACS, phage-displayed clone on HepG2, well B4; same clone on A-431 (no GPC3): 1095.02
[5] = biological target: T1, human GPC3 on HepG2 cells; experiment: FACS, periplasmic extract 1:5 + anti-c-myc + GAM-APC on HepG2, well B4; same on A-431: 0.54%
[6] = biological target: T1, human GPC3 on HepG2 cells; experiment: FACS, periplasmic extract 1:5 + anti-c-myc + GAM-APC on HepG2, well B4; same on A-431: 873.16
[7] = biological target: T2, human GPC3 recombinant protein; experiment: SPR (Biacore) off-rate screen, periplasmic extract over human GPC3 on CM5; R0 38.8
Experimental: as §1

[8] = biological target: T2, human GPC3 recombinant protein; experiment: SPR (Biacore) off-rate screen, periplasmic extract over human GPC3 on CM5; R0 40.0
Experimental: as §1

[9] = biological target: T2, human GPC3 recombinant protein; experiment: SPR (Biacore), summary table; Chi2 0.466; Profile 'Good'
[10] = biological target: T2, human GPC3 recombinant protein; experiment: SPR (Biacore) off-rate screen, periplasmic extract over human GPC3 on CM5; R0 46.9
Experimental: as §1

[11] = biological target: T2, human GPC3 recombinant protein; experiment: SPR (Biacore), VHH-His over human GPC3 on CM5; fit 197.5 - 17.34 nM; Rmax 10.9 RU; Chi2 0.466
Experimental: (§2) Affinities of the 19 VHH-His tagged domains were then determined by BiaCore assay. Human GPC3 protein (Sino biological cat. nr. 10088-H08H-500) was immobilized on CM5 sensor chip (GE Healthcare) as antigen. Purified VHH-His tagged domains were diluted in BiaCore buffer (0.01 M HEPES pH 7.4, 0.15 M NaCl, 3 mM EDTA, 0.05% P20) to 500 nM and injected over 2 minutes at […] followed by a half dilution series to 7.8 nM. 10 μl of 10 mM NaOH/1M NaCl were injected between samples and then off-rate wash was 5 minutes.

[12] = biological target: T2, human GPC3 recombinant protein; experiment: SPR (Biacore) off-rate screen, periplasmic extract over human GPC3 on CM5; R0 26.5
Experimental: as §1

[13] = biological target: T2, human GPC3 recombinant protein; experiment: SPR (Biacore), summary table; Chi2 0.465; Profile 'Very good'; FIG. 18 prints 6.01E-09
[14] = biological target: T2, human GPC3 recombinant protein; experiment: SPR (Biacore), VHH-His over human GPC3 on CM5; fit 197.5 - 17.34 nM; Rmax 10.9 RU; Chi2 0.465
Experimental: as §2

[15] = biological target: T2, human GPC3 recombinant protein; experiment: SPR epitope binning on human GPC3
Experimental: The 19 VHH-His tagged domains were then evaluated for epitope-binding site. All VHHs were injected one at a time to evaluate the epitope binding site for each VHH domain. […] Human GPC3 was injected followed by an off rate wash for 4 minutes. No binding is observed if the VHH binds at the same epitope as VHH2, while a second binding event is observed if the VHH binds at a different epitope. All VHHs were binned into two groups based on the epitopes. VHH2 and VHH3 bind the same epitope and all other VHs bind the second epitope (FIG. 19).

[16] = biological target: T2, human GPC3 recombinant protein; experiment: SPR (Biacore) off-rate screen, periplasmic extract over human GPC3 on CM5; R0 34.4
Experimental: as §1

[17] = biological target: T2, human GPC3 recombinant protein; experiment: SPR (Biacore) off-rate screen, periplasmic extract over human GPC3 on CM5; R0 48.2
Experimental: as §1

[18] = biological target: T2, human GPC3 recombinant protein; experiment: SPR (Biacore) off-rate screen, periplasmic extract over human GPC3 on CM5; R0 36.0
Experimental: as §1

[19] = biological target: T2, human GPC3 recombinant protein; experiment: SPR (Biacore), summary table; Chi2 0.207; Profile 'Very good'
Experimental: as §2

[20] = biological target: T1, human GPC3 on HepG2 cells; experiment: FACS, phage-displayed clone on HepG2, well E4; same clone on A-431 (no GPC3): 2.08%
[21] = biological target: T1, human GPC3 on HepG2 cells; experiment: FACS, phage-displayed clone on HepG2, well E4; same clone on A-431 (no GPC3): 1163.66
[22] = biological target: T1, human GPC3 on HepG2 cells; experiment: FACS, periplasmic extract 1:5 + anti-c-myc + GAM-APC on HepG2, well E4; same on A-431: 0.25%
[23] = biological target: T1, human GPC3 on HepG2 cells; experiment: FACS, periplasmic extract 1:5 + anti-c-myc + GAM-APC on HepG2, well E4; same on A-431: 760.97
[24] = biological target: T2, human GPC3 recombinant protein; experiment: SPR (Biacore) off-rate screen, periplasmic extract over human GPC3 on CM5; R0 61.6
Experimental: as §1

[25] = biological target: T2, human GPC3 recombinant protein; experiment: SPR (Biacore), VHH-His over human GPC3 on CM5; fit 62.5 - 7.8 nM; Rmax 22.5 RU; Chi2 0.207
Experimental: as §2

T2 sequence (P51654 25-559 limits assumed): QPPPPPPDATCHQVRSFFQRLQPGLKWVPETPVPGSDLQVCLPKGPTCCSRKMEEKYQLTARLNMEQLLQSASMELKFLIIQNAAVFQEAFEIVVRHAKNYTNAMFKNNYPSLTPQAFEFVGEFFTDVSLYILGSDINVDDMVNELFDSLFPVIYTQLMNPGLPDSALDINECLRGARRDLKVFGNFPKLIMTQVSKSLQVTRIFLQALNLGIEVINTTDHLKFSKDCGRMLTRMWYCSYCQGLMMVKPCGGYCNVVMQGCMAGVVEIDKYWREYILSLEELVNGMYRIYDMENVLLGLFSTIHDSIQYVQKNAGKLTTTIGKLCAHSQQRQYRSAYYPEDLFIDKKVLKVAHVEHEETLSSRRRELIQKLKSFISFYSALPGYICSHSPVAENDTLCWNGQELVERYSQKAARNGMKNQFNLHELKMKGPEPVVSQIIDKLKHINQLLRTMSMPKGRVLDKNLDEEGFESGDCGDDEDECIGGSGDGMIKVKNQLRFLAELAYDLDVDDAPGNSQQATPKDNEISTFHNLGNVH
T1 sequence (P51654 25-554 limits assumed): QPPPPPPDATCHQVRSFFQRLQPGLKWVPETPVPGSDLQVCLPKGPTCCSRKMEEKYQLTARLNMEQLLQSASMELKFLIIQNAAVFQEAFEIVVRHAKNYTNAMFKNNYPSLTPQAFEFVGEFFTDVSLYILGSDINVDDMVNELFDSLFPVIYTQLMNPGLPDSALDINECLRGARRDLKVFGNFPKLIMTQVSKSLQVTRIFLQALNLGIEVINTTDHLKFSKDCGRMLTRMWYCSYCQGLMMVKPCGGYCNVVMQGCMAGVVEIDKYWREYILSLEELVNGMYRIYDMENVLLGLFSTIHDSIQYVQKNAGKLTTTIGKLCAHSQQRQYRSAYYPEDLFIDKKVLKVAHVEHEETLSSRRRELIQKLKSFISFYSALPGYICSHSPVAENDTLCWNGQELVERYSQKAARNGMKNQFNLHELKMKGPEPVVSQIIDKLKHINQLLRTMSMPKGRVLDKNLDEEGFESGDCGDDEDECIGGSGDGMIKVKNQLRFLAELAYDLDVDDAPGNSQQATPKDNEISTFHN

binding result [1]: no binding
koff [2]: 0.0948 s⁻¹
B1: VH32 (VHH)
VHH: QVQLVESGGGLVQPGGSLRLSCAASGFTFSSFAMSWVRQAPGKGLEWVSAISGSGGRTHYADSVKGRFTISRDNSKNTLYLQMNSLRAEDTAVYYCAKEALTGVFDYWGQGTLVTVSS
notes: also called VHH32

% of Binding [3]: 35.7%
Mean FL2-A [4]: 11100
% of Binding [5]: 1.43%
Mean FL4-A [6]: 931
koff [7]: 0.00493 s⁻¹
B2: VH29 (VHH)
VHH: QVQLVESGGGLVQPGGSLRLSCAASGFTFSSYAMSWVRQAPGKEPEWVSSISGGGSSTYYADSLKGRFTISRDNSKNTLYLQMNSLRAEDTAVYYCSRDPRFGEPPFDYWGQGTLVTVSS
notes: also called VHH29

koff [8]: 0.00387 s⁻¹
B3: VH27 (VHH)
VHH: EVQLVESGGGLVQPGGSLRLSCAASGFTFSSYAMSWVRQAPGKEPEWVSSISGGGSSTYYADSLKGRFTISRDNSKNTLYLQMNSLRAEDTAVYYCSRDPRFGEPPFDYWGQGTLVTVSS
notes: also called VHH27

Kd [9]: 6.84 nM
koff [10]: 0.00457 s⁻¹
Ka [11]: 1.46e+08 M⁻¹
Kd [11]: 6.84 nM
koff [11]: 0.00262 s⁻¹
kon [11]: 383000 M⁻¹ s⁻¹
B4: anti-GPC3 VHH-His tagged domain VHH7 (VHH)
VHH: EVQLVESGGGLVQPGGSLRLSCAASGFTFSSYAMSWVRQAPGKEPEWVSSISGGGSSTYYADSLKGRFTISRDNSKNTLYLQMNSLRAEDTAVYYCSRDPRFGEPPFDYWGQGTTVTVSS
notes: Produced from a mammalian expression vector as a His fusion; not shown: His tag

koff [12]: 0.00247 s⁻¹
Kd [13]: 4.29 nM
Ka [14]: 1.66e+08 M⁻¹
Kd [14]: 6.01 nM
koff [14]: 0.00167 s⁻¹
kon [14]: 278000 M⁻¹ s⁻¹
B5: anti-GPC3 VHH-His tagged domain VHH1 (VHH)
VHH: EVQLVESGGGLVQPGGSLRLSCAASGFTFSSYAMSWVRQAPGKEPEWVSSISGGGTSTYYADSLEGRFTISRDNSKNTLYLQMNSLRAEDTAVYYCSKDPRFGEPPFDYWGQGTTVTVSS
notes: as for B4

binding result [15]: binds
B6: anti-GPC3 VHH-His tagged domain VHH19 (VHH)
VHH: EEQLVESGGGLVQPGGSLRLSCAASGFTFSSYAMSWVRQAPGKEPEWVSSISGGGGSTYYADSLKGRFTISRDNSKNTLYLQMNSLRAEDTAVYYCARDPRYGEPPFDYRCQGTTVTVSS
notes: as for B4

koff [16]: 0.00379 s⁻¹
B7: VH26 (VHH)
VHH: EVQLVESGGGLVQPGGSLRLSCAASGFTFSSYAMSWVRQAPGKEPEWISSISGSGSSTYYADSLKGRFTISRDNSKNTLYLQMNSLRAEDTAVYYCSKDPRFGEPPFDYWGQGTLVTVSS
notes: also called VHH26

koff [17]: 0.00269 s⁻¹
B8: VH21 (VHH)
VHH: QVQLVESGGGLVQPGGSLRLSCAASGFTFSSYAMSWVRQAPGKEPEWISSISGSGSSTYYADSLKGRFTISRDNSKNTLYLQMNSLRAEDTAVYYCSKDPRFGEPPFDYWGQGTLVTVSS
notes: also called VHH21

koff [18]: 0.00566 s⁻¹
B9: VH36 (VHH)
VHH: QVQLVESGGGLVQPGGSLRLSCAASGFTFSSYAMSWVRQAPGKEPEWVSSISGGGSSTYYADSLKGRFTISRDNSKNTLYLQMNSLRAEDTAVYYCSRDPRFGEPPFDYWGQGTTVTVSS
notes: also called VHH36

Kd [19]: 3.23 nM
% of Binding [20]: 60.1%
Mean FL2-A [21]: 18600
% of Binding [22]: 0.27%
Mean FL4-A [23]: 796
koff [24]: 0.00154 s⁻¹
Ka [25]: 3.09e+08 M⁻¹
Kd [25]: 3.23 nM
koff [25]: 0.00141 s⁻¹
kon [25]: 435000 M⁻¹ s⁻¹
B10: anti-GPC3 VHH-His tagged domain VHH3 (VHH)
VHH: EVQLVESGGGVVQPGRSLRLSCAASGFTFSNYLMQWVRQAPGKGLVWLSNINSDGSSTDYADSVKGRFTISRDNAKNTLYLQMNSLRAEDTAVYYCRVGAFDYWGQGTLVTVSS
notes: as for B4
